{"source": "patent US20190359986A1", "about": "(ROCHE INNOVATION CENTER COPENHAGEN A S, published 2019)", "binders": {"B1": {"name": "human TNFR2 Δ7 with His-tag, from clone 1319-1 transfected HeLa cells (receptor)", "chain": "LPAQVAFTPYAPEPGSTCRLREYYDQTAQMCCSKCSPGQHAKVFCTKTSDTVCDSCEDSTYTQLWNWVPECLSCGSRCSSDQVETQACTREQNRICTCRPGWYCALSKQEGCRLCAPLRKCRPGFGVARPGTETSDVVCKPCAPGTFSNTTSSTDICRPHQICNVVAIPGNASMDAVCTSTSPTRSMAPGAVHLPQPVSTRSQHTQPTPEPSTAPSTSFLLPMGPSPPAEGSTGDFALPVEKPLCLQREAKVPHLPADKARGTQGPEQQHLLITAPSSSSSSLESSASALDRRAPTRNQPQAPGVEASGAGEARASTGSSDSSPGGHGTQVNVTCIVNVCSSSDHSSQCSSQASSTMGDTDSSPSESPKDEQVPFSKEECAFRSQLETPETLLGSTEEKPLPLGVPDAGMKPSKGQDNSADIQHSGGRSSLEGPRFEGKPIPNPLLGLDSTRTGHHHHHH", "modifications": "variably glycosylated"}, "B2": {"name": "human TNFR2 Δ7 without His-tag, from clone 1230-1 transfected HeLa cells (receptor)", "chain": "LPAQVAFTPYAPEPGSTCRLREYYDQTAQMCCSKCSPGQHAKVFCTKTSDTVCDSCEDSTYTQLWNWVPECLSCGSRCSSDQVETQACTREQNRICTCRPGWYCALSKQEGCRLCAPLRKCRPGFGVARPGTETSDVVCKPCAPGTFSNTTSSTDICRPHQICNVVAIPGNASMDAVCTSTSPTRSMAPGAVHLPQPVSTRSQHTQPTPEPSTAPSTSFLLPMGPSPPAEGSTGDFALPVEKPLCLQREAKVPHLPADKARGTQGPEQQHLLITAPSSSSSSLESSASALDRRAPTRNQPQAPGVEASGAGEARASTGSSDSSPGGHGTQVNVTCIVNVCSSSDHSSQCSSQASSTMGDTDSSPSESPKDEQVPFSKEECAFRSQLETPETLLGSTEEKPLPLGVPDAGMKPS"}, "B3": {"name": "human TNFR2 Δ7 with glutamine 352 changed to arginine, from clone 1138-5 transfected HeLa cells (receptor)", "chain": "B2 chain with Q330R"}, "B4": {"name": "mouse TNFR2 Δ7 (SSO-induced, in serum of SSO 3274 or SSO 3305 treated mice) (receptor)", "chain": "VPAQVVLTPYKPEPGYECQISQEYYDRKAQMCCAKCPPGQYVKHFCNKTSDTVCADCEASMYTQVWNQFRTCLSCSSSCTTDQVEIRACTKQQNRVCACEAGRYCALKTHSGSCRQCMRLSKCGPGFGVASSRAPNGNVLCKACAPGTFSDTTSSTDVCRPHRICSILAIPGNASTDAVCAPESPTLSAIPRTLYVSQPEPTRSQPLDQEPGPSQTPSILTSLGSTPIIEQSTKGGISLPIEKPSCLQRDAKVPHVPDEKSQDAVGLEQQHLLTTAPSSSSSSLESSASAGDRRAPPGGHPQARVMAEAQGFQEARASSRISDSSHGSHGTHVNVTCIVNVCSSSDHSSQCSSQASATVGDPDAKPSASPKDEQVPFSQEECPSQSPCETTETLQSHEKPLPLGVPDMGMKPSQAGWFDQIAVKVA"}}, "molecular_target": "TNF-α", "experiment": "cell-based or functional assay", "note": "Positions count from the first letter of the chain named."}
{"binder": "B1", "values": [{"measurement": "EC50, L929 cytotoxicity assay; extracellular media from 1319-1 transfected HeLa cells", "result": 1.7, "unit": "ng/mL"}]}
{"binder": "B2", "values": [{"measurement": "EC50, L929 cytotoxicity assay; extracellular media from 1230-1 transfected HeLa cells", "result": 1.4, "unit": "ng/mL"}]}
{"binder": "B3", "values": [{"measurement": "EC50, L929 cytotoxicity assay; extracellular media from 1138-5 transfected HeLa cells", "result": 1.8, "unit": "ng/mL"}]}
{"binder": "B4", "values": [{"measurement": "EC50, L929 cytotoxicity assay; SSO 3274 treated mice serum", "result": 0.8, "unit": "ng/mL"}, {"measurement": "EC50, L929 cytotoxicity assay; SSO 3305 treated mice serum", "result": 0.6, "unit": "ng/mL"}]}
